Source: patent publication US20190119348A1, “PARATHYROID HORMONE RECEPTOR 1 ANTAGONIST AND INVERSE AGONIST POLYPEPTIDES AND METHODS OF THEIR USE” (The General Hospital Corporation, priority 2016, published 2019)
Read-outs that look alike come from different tables or passages of the source. Where no end group is shown, it is not given here.

T1: human parathyroid hormone receptor 1 (hPTHR1) (human), Q03431
T1 chain: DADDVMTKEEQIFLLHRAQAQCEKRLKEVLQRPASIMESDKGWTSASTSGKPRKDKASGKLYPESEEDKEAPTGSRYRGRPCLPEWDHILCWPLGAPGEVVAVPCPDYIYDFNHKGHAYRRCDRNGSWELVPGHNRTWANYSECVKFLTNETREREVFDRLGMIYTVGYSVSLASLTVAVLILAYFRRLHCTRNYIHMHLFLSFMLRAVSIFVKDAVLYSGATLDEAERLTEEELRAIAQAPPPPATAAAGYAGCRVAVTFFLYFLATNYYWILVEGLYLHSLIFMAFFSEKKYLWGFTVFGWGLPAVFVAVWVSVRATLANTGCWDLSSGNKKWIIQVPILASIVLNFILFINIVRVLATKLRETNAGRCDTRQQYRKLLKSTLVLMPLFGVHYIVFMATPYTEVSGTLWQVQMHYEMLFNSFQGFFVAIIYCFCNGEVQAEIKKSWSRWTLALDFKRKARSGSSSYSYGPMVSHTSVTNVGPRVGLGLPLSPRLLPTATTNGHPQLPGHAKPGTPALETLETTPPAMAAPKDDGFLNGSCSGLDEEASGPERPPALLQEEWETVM


How the values were obtained:
[1] = target: T1, human parathyroid hormone receptor 1 …; experiment: cell-based or functional assay
[2] = target: T1, human parathyroid hormone receptor 1 …; experiment: radioligand competition on GP-2.3 cells (hPTHR1), tracer 125I-PTH(1-34), n=4
[3] = target: T1, human parathyroid hormone receptor 1 …; experiment: radioligand competition on GP-2.3 cells (hPTHR1), tracer 125I-PTHrP(5-36), n=4
[4] = target: hPTHR1-H223R (human) (UniProt Q03431); experiment: cell-based or functional assay
[5] = target: hPTHR1-H223R (human) (UniProt Q03431); experiment: cell-based or functional assay; remark: listed apart in the source

| Binder | IC50 (nanomolar value of the pIC50), antagonism of PTH(1-34)-induced cAMP response, GP-2.3 cells [1] [nM] | IC50 (nanomolar value of the pIC50), antagonism of PTH(1-34)-induced cAMP response, SGS-72 cells [1] [nM] | IC50 (nanomolar value of the pIC50), antagonism of PTHrP(1-36)-induced cAMP response, SGS-72 cells [1] [nM] | IC50, antagonism of PTH(1-34) (0.3 nM)-induced cAMP response, SGS-72 cells [1] [nM] | pIC50, antagonism of PTH(1-34) (0.3 nM)-induced cAMP response, SGS-72 cells [1] | pIC50, antagonism of PTH(1-34)-induced cAMP response (GloSensor), GP-2.3 cells [1] | pIC50, antagonism of PTH(1-34)-induced cAMP response, SGS-72 cells [1] | pIC50, antagonism of PTHrP(1-36)-induced cAMP response, SGS-72 cells [1] | IC50 [2] [nM] | pIC50 [2] | IC50 [3] [nM] | pIC50 [3] | also measured |
| --- | --- | --- | --- | --- | --- | --- | --- | --- | --- | --- | --- | --- | --- |
| IQLMHQRWKWIQDARRRAWLHKLIAEIHTAEI (modifications not checked) [dW12, W23-LA-PTH(5-36)-1949] | 101 | 1 | 1 | 1.45 | 8.84 -log M | 7 -log M | 9.11 -log M | 9.1 -log M | 22.3 | 7.65 -log M | 17.7 | 7.75 -log M | IC50, antagonism of PTHrP(1-36) (0.3 nM)-induced cAMP response, SGS-72 cells [1]: 1.21 nM; pIC50, antagonism of PTHrP(1-36) (0.3 nM)-induced cAMP response, SGS-72 cells [1]: 8.92 -log M; washout assay: inhibition of the cAMP response to agonist applied after antagonist pre-treatment and rinsing [1]: > 90%; Reduction of basal cAMP, % vehicle; After ligand washout; GHR-10 cells [4]: 30 % vehicle; Reduction of basal cAMP, % vehicle; Ligand @ -6M; GHR-10 cells [4]: 41 % vehicle |
| IQLMHQRAKWIQDARRRAFLHKLIAEIHTAEI-NH2 [LA-PTH(5-36)-2012] | – | – | – | – | – | – | – | – | – | – | – | – | Reduction of basal cAMP, % vehicle; After ligand washout; GHR-10 cells [5]: -49 % vehicle; Reduction of basal cAMP, % vehicle; Ligand @ -6M; GHR-10 cells [5]: -15 % vehicle |
| FMHNLWKHLSSMERVEWLRKKLQDVHNY (modifications not checked) [dW12, Y34-bPTH(7-34)-1894] | 377 | 5 | 5 | 14.5 | 7.84 -log M | 6.42 -log M | 8.31 -log M | 8.33 -log M | 28.6 | 7.54 -log M | 35.1 | 7.46 -log M | pIC50, inhibition of the cAMP signal induced by PTH(1-34) (0.3 nM), SGS-72 cells [1]: 7.2 -log M; pIC50, inhibition of the cAMP signal induced by PTH(1-34) (1 nM), GP-2.3 cells [1]: 6.4 -log M |
